Fold accumulation in the 80S fraction, without CHX against CHX-treated data for one molecule are collected here from doi:10.1101/2022.08.08.503151.

This assay deals with 80S ribosome (yeast) (S. cerevisiae (endogenous in TB50a)) (UniProt P14126). Nature of the assay: co-sedimentation.
Chain of UniProt P14126 (P14126 whole entry, looked up): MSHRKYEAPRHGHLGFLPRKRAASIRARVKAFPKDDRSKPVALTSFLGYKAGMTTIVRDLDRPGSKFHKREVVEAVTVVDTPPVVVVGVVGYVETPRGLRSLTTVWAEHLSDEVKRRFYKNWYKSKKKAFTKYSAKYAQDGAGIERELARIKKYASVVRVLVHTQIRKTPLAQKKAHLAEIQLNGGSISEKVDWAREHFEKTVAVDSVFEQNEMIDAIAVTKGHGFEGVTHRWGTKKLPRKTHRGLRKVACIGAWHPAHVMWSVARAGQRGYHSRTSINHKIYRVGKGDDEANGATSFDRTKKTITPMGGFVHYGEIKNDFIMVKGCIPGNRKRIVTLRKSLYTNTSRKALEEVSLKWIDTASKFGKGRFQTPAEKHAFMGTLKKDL

B1: Stm1 (suppressor of target of Myb protein 1) (natural protein)
chain: MSNPFDLLGNDVEDADVVVLPPKEIVKSNTSSKKADVPPPSADPSKARKNRPRPSGNEGAIRDKTAGRRNNRSKDVTDSATTKKSNTRRATDRHSRTGKTDTKKKVNQGWGDDKKELSAEKEAQADAAAEIAEDAAEAEDAGKPKTAQLSLQDYLNQQANNQFNKVPEAKKVELDAERIETAEKEAYVPATKVKNVKSKQLKTKEYLEFDATFVESNTRKNFGDRNNNSRNNFNNRRGGRGARKGNNTANATNSANTVQKNRNIDVSNLPSLA
Take B1: the fold accumulation in the 80S fraction, without CHX against CHX-treated was 3 fold.
